From publication PMC10415612
Read-outs that look alike come from different tables or passages of the source.

Columns and labels:
[1] = molecular target: bacterial proteasome activator (Bpa), fluorescein-labelled (M. tuberculosis) (UniProt P9WKX3)
[2] = molecular target: bacterial proteasome activator (Bpa), fluorescein-labelled (M. tuberculosis) (UniProt P9WKX3); test: MST
[3] = molecular target: bacterial proteasome activator (Bpa), labelled with RED-NHS second generation dye (M. tuberculosis) (UniProt P9WKX3); test: MST; temperature-related fluorescence intensity changes (T-jump model) on a Monolith NT.115; 250 nM Bpa-RED protomer titrated with serial dilutions of peptides 1-7; buffer M (50 mM HEPES-KOH pH 7.5, 150 mM NaCl, 5 mM MgCl2, 5% glycerol, 0.1% pluronic 127, 2% DMSO); 25°C; qualitative screen, then peptide 1 in triplicates
[4] = molecular target: bacterial proteasome activator (Bpa), fluorescein-labelled (M. tuberculosis) (UniProt P9WKX3); test: MST; remark: listed apart in the source

Substance: HspR H24A (natural protein)
- Bpa-mediated proteasomal degradation by 20S CP WT, SDS-PAGE time course, 37°C (unlabelled Bpa) (% degraded after 2 h) [1]: 90
- Kd [2]: 12.1 µM

Substance: HspR peptide 1 (residues 16-30)
- Kd [3]: 330 µM

Substance: HspRΔC9, C-terminal truncation variant of HspR (domain or fragment)
- Kd [4]: 3.62 µM

Substance: heat shock repressor HspR, wild type (natural protein)
- Bpa-mediated proteasomal degradation by 20S CP WT, SDS-PAGE time course, 37°C (unlabelled Bpa) (min to degradation) [1]: < 5
- Kd [4]: 5.6 µM
- Kd [2]: 3.56 µM
